According to paper doi:10.1101/2022.07.11.499617, “Direct attenuation of Arabidopsis ERECTA signaling by a pair of U-box E3 ligases” (bioRxiv, 2022):
Like-named read-outs stand apart in the source and are kept apart here.

T1: GST-PUB30 (Arabidopsis thaliana, UniProt Q058P4 1-448)
T1 chain: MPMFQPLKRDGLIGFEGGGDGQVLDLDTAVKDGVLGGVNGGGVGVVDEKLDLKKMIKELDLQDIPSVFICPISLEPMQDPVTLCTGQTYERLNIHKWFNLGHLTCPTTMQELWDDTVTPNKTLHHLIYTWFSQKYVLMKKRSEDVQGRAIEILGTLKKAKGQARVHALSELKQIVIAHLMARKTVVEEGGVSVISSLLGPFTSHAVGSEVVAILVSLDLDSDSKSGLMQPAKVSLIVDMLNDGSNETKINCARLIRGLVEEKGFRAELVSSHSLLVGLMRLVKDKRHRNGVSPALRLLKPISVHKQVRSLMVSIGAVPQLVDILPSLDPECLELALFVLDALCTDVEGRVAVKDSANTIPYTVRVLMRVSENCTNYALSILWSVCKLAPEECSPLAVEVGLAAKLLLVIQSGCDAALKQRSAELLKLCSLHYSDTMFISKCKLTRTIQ

T2: GST-PUB31 (Arabidopsis thaliana, UniProt Q9FHN9 1-444)
T2 chain: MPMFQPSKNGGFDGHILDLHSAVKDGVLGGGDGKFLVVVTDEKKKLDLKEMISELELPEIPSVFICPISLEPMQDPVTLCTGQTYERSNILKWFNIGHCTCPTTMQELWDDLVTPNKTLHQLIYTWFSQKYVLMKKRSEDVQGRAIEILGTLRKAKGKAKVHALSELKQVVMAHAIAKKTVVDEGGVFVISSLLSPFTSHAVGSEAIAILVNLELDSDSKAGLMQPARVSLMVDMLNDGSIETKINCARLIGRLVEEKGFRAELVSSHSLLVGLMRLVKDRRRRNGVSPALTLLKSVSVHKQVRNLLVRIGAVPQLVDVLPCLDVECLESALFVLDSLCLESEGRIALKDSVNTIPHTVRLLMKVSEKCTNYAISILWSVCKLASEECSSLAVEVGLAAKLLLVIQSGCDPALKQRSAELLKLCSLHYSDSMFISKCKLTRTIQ

T3: GST-PUB30 (Arabidopsis thaliana, UniProt Q058P4 1-448)
T3 construct: Plant U-box ubiquitin E3 ligase PUB30, Arabidopsis, full length
T3 sequence (looked up): T1 chain

T4: GST-PUB31 (Arabidopsis thaliana, UniProt Q9FHN9 1-444)
T4 construct: Plant U-box ubiquitin E3 ligase PUB31, Arabidopsis, full length
T4 sequence (looked up): T2 chain

B1: MBP-ERECTA_CD (domain or fragment)
chain: CRPHNPPPFLDGSLDKPVTYSTPKLVILHMNMALHVYEDIMRMTENLSEKYIIGHGASSTVYKCVLKNCKPVAIKRLYSHNPQSMKQFETELEMLSSIKHRNLVSLQAYSLSHLGSLLFYDYLENGSLWDLLHGPTKKKTLDWDTRLKIAYGAAQGLAYLHHDCSPRIIHRDVKSSNILLDKDLEARLTDFGIAKSLCVSKSHTSTYVMGTIGYIDPEYARTSRLTEKSDVYSYGIVLLELLTRRKAVDDESNLHHLIMSKTGNNEVMEMADPDITSTCKDLGVVKKVFQLALLCTKRQPNDRPTMHQVTRVLGSFMLSEQPPAATDTSATLAGSCYVDEYANLKTPHSVNCSSMSASDAQLFLRFGQVISQNSE
B2: MBP-BAK1_CD (domain or fragment, Arabidopsis thaliana, UniProt Q94F62 247-615, looked up)
chain: AWWRRKKPQDHFFDVPAEEDPEVHLGQLKRFSLRELQVASDNFSNKNILGRGGFGKVYKGRLADGTLVAVKRLKEERTQGGELQFQTEVEMISMAVHRNLLRLRGFCMTPTERLLVYPYMANGSVASCLRERPESQPPLDWPKRQRIALGSARGLAYLHDHCDPKIIHRDVKAANILLDEEFEAVVGDFGLAKLMDYKDTHVTTAVRGTIGHIAPEYLSTGKSSEKTDVFGYGVMLLELITGQRAFDLARLANDDDVMLLDWVKGLLKEKKLEALVDVDLQGNYKDEEVEQLIQVALLCTQSSPMERPKMSEVVRMLEGDGLAERWEEWQKEEMFRQDFNYPTHHPAVSGWIIGDSTSQIENEYPSGPR
notes: BRI1-ASSOCIATED RECEPTOR KINASE1 (BAK1/SERK3), Arabidopsis; cytoplasmic domain

How the values were obtained:
GST-PUB30 [1] = target: T1, GST-PUB30; assay: BLI
GST-PUB31 [2] = target: T2, GST-PUB31; assay: BLI
GST-PUB30 [3] = target: T3, GST-PUB30; assay: BLI; Octet Red96; GST-PUB30 or GST-PUB31 loaded on anti-GST probes (2000 nM for ERECTA_CD, 1000 nM for BAK1_CD); ERECTA_CD or BAK1_CD as analyte at seven concentrations; 30 °C; 1x PBS with 0.02 % Tween 20; 1:1 model, steady-state analysis; conditions: both partners purified
GST-PUB31 [4] = target: T4, GST-PUB31; assay: as above; conditions: both partners purified
GST-PUB30 [5] = target: T1, GST-PUB30; assay: BLI
GST-PUB31 [6] = target: T2, GST-PUB31; assay: BLI

Binder	Kd (GST-PUB30 [1])	Kd (GST-PUB31 [2])	fold stronger interaction than ERECTA_CD (GST-PUB30 [3])	fold stronger interaction than ERECTA_CD (GST-PUB31 [4])	Kd (GST-PUB30 [5])	Kd (GST-PUB31 [6])
B1	15 µM	11 µM				
B2			~10 fold	~10 fold	2.4 µM	2 µM
